In the assay the target is T1, HA-tagged ubiquitin-Vinyl Sulfone (UniProt P0CG48 1-76, vinyl sulfone (position not given)).
T1 construct: ubiquitin, the mature cut product of a ubiquitin precursor, carrying a vinyl sulfone warhead; Commercial active-site probe; also called HA-UbVS; HA-Ub-VS; source: bought: Boston Biochem
The assay can be described thus: active-site-directed covalent labelling with HA-UbVS; purified 26S proteasomes (25 nM) incubated with HA-UbVS for 1 h at 37°C, boiled in reducing sample buffer, SDS-PAGE, HA immunoblot; without Aur, and after 2 μM Aur for 10 min (labelling reduced). The following applies: both partners purified. In general terms: Immunoblotting shows a protein as a band on a membrane.

The values that follow come from PMC4170648, “Clinically used antirheumatic agent auranofin is a proteasomal deubiquitinase inhibitor and inhibits tumor growth” (Oncotarget, 2014).

B1: UCHL5 (enzyme, human, UniProt Q9Y5K5 1-329, looked up)
chain: MTGNAGEWCLMESDPGVFTELIKGFGCRGAQVEEIWSLEPENFEKLKPVHGLIFLFKWQPGEEPAGSVVQDSRLDTIFFAKQVINNACATQAIVSVLLNCTHQDVHLGETLSEFKEFSQSFDAAMKGLALSNSDVIRQVHNSFARQQMFEFDTKTSAKEEDAFHFVSYVPVNGRLYELDGLREGPIDLGACNQDDWISAVRPVIEKRIQKYSEGEIRFNLMAIVSDRKMIYEQKIAELQRQLAEEEPMDTDQGNSMLSAIQSEVAKNQMLIEEEVQKLKRYKIENIRRKHNYLPFIMELLKTLAEHQQLIPLVEKAKEKQNAKKAQETK
notes: UCHL5/Uch37, human, deubiquitinase associated with the 19S regulatory particle, present in purified 26S proteasomes; It stood in the assay as a component of the bought 26S proteasome and was resolved as a labelled band on SDS-PAGE; PDB 3RIS was used only for docking of the small molecule; also called UCHL5/Uch37; source: bought: Boston Biochem, as part of purified human 26S proteasomes
Turning to B1, the binding result is listed as “binds”.
